Reference: patent US20240279356A1 (Xencor, published 2024)
Residue numbers refer to the chain shown, from its start.

Key:
[1] = target: T1, MSLN on OVCAR8 (MSLN^high) and other cancer cell lines (UniProt Q13421 296-598); test: flow cytometry on OVCAR8 cells, detected with A647-labelled anti-human Fc mAb
T1 construct: whole, on cells; Endogenous surface MSLN; also called MSLN^high OVCAR8 cells; MSLN^low SKOV3 and HT29 cells
Method: Next, the effect of MSLN binding affinity was investigated. 100,000 OVCAR8 (MSLN^high) cells were treated with the indicated concentrations of the indicated test articles. […] Further, XENP32852 and XENP32853 which differ only in CD3 binding affinity have identical binding to OVCAR8 cells confirming that avid binding is due to the MSLN binding domain.

[2] = target: T2, human MSLN antigen (human, UniProt Q13421 296-580, limits assumed); test: Octet BLI on human MSLN antigen (Example 2B(a)); KD quoted in the FIG. 35 legend
T2 construct: Soluble antigen for BLI; also called Mesothelin; MESO
Source text: (§1) Variants of MESO-C were engineered by introducing point substitutions into the variable heavy region (VH) and the variable light region (VL) to generate 11 VH variants and 16 VL variants (sequences for which are depicted in FIG. 18 as H1.1-H1.13 and in FIG. 19 as L1.1-L1.18). An additional 4 VL variants were generated by combining useful point substitutions (sequences for which are depicted in FIG. 19 as L1.19-L1.22). WT and variant variable heavy regions were paired with WT and variant variable light regions to generate variant variable regions (Fvs) which were produced in the context of anti-MSLN×anti-CD3 bispecific antibodies. The bispecific antibodies were screened for MSLN binding affinity using Octet®, a BioLayer Interferometry (BLI)-based method. Experimental steps for Octet® generally include the following: Immobilization (capture of ligand to a biosensor); Association (dipping of ligand-coated biosensors into wells containing the analyte); and Dissociation (returning of biosensors to well containing buffer). In an initial screening, anti-human Fc sensors were used to capture the bispecific mAbs and dipped into human MSLN antigen (one concentration to screen large library). The resulting dissociation constant of illustrative variants (KD), association rate (kₐ), dissociation rate (kd), as well as sensorgram response are depicted in FIG. 20. In further screening of favorite variants identified in the initial screen (and combination variants), bispecific mAbs were dipped into multiple concentrations of human MSLN antigen, data for which are depicted in FIG. 21 (from various screens).

[3] = target: T2, human MSLN antigen; test: Octet BLI; bsAb on anti-human Fc sensor, human MSLN as analyte, several concentrations
Source text: as §1

[4] = target: T2, human MSLN antigen; test: Octet BLI; bsAb on anti-human Fc sensor, human MSLN as analyte, one concentration
Source text: as §1

[5] = target: T3, cyno MSLN (Macaca fascicularis (cynomolgus)); test: Octet BLI; bsAb on anti-human Fc sensor, cyno MSLN as analyte, one concentration
T3 construct: soluble antigen for Octet; also called cynomolgus MSLN

T1 sequence (Q13421 other isoform, or with tags, fused parts or gaps limits assumed): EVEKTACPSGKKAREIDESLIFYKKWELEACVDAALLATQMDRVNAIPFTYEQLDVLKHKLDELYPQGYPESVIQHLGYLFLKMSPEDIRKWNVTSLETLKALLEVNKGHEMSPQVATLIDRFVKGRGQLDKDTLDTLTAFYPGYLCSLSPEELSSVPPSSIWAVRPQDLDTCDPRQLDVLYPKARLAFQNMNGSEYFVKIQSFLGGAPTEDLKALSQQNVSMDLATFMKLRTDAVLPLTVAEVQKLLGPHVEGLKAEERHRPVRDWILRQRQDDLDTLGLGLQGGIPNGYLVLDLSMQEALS
T2 sequence (Q13421 other isoform, or with tags, fused parts or gaps limits assumed): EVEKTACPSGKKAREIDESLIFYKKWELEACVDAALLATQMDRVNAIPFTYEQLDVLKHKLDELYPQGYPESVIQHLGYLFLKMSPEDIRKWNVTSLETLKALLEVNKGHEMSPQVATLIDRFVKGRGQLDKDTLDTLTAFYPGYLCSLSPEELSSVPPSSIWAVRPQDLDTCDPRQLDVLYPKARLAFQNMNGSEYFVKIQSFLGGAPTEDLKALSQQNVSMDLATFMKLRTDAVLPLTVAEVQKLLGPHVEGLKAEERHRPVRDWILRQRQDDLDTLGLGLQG

B1: XENP31697 (bispecific antibody)
heavy: QVQLVQSGAEVKKPGASVKVSCKASGYTFTSYWMHWVRQAPGQGLEWMGMIHPNSDNTIYYEKFQGRVTMTVDKSISTAYMELSRLRSDDTAVYYCAIIITPVVPKFDYWGQGTLVTVSSASTKGPSVFPLAPSSKSTSGGTAALGCLVKDYFPEPVTVSWNSGALTSGVHTFPAVLQSSGLYSLSSVVTVPSSSLGTQTYICNVNHKPSDTKVDKKVEPKSCDKTHTCPPCPAPPVAGPSVFLFPPKPKDTLMISRTPEVTCVVVDVKHEDPEVKFNWYVDGVEVHNAKTKPREEEYNSTYRVVSVLTVLHQDWLNGKEYKCKVSNKALPAPIEKTISKAKGQPREPQVYTLPPSREEMTKNQVSLTCDVSGFYPSDIAVEWESDGQPENNYKTTPPVLDSDGSFFLYSKLTVDKSRWEQGDVFSCSVMHEALHNHYTQKSLSLSPGK
scFv-Fc: not shown
light: DIVMTQSPDSLAVSLGERATINCKASHDVGTSVAWYQQKPGQSPKLLIYWASTRHTGVPDRFTGSGSGTDFTLTISSLQAEDVAVYFCQQYSSYPLTFGAGTKLEIKRTVAAPSVFIFPPSDEQLKSGTASVVCLLNNFYPREAKVQWKVDNALQSGNSQESVTEQDSKDSTYSLSSTLTLSKADYEKHKVYACEVTHQGLSSPVTKSFNRGEC
notes: 1+1 Fab-scFv-Fc anti-MSLN x anti-CD3
[1]
  EC50 (read off the curve): ~0.07 µg/mL
[2]
  Kd: 280 pM

B2: XENP32853 (bispecific antibody)
heavy 1: B1 heavy
heavy 2: QVQLVQSGAEVKKPGASVKVSCKASGYTFTSYWMHWVRQAPGQGLEWMGMIHPNSDNTIYYEKFQGRVTMTVDKSISTAYMELSRLRSDDTAVYYCAIIITPVVPKFDYWGQGTLVTVSSASTKGPSVFPLAPSSKSTSGGTAALGCLVKDYFPEPVTVSWNSGALTSGVHTFPAVLQSSGLYSLSSVVTVPSSSLGTQTYICNVNHKPSNTKVDKKVEPKSCGGGGSGGGGSQAVVTQEPSLTVSPGGTVTLTCGSSTGAVTTSNYANWVQQKPGKSPRGLIGGTNKRAPGVPARFSGSLLGGKAALTISGAQPEDEADYYCALWYSNHWVFGGGTKLTVLGKPGSGKPGSGKPGSGKPGSEVQLVESGGGLVQPGGSLRLSCAASGFTFSTYAMNWVRQAPGKGLEWVGRIRSKYNNYATYYADSVKGRFTISRDDSKNTLYLQMNSLRAEDTAVYYCVRHGNFGDEYVSWFAYWGQGTLVTVSSEPKSSDKTHTCPPCPAPPVAGPSVFLFPPKPKDTLMISRTPEVTCVVVDVKHEDPEVKFNWYVDGVEVHNAKTKPREEQYNSTYRVVSVLTVLHQDWLNGKEYKCKVSNKALPAPIEKTISKAKGQPREPQVYTLPPSREQMTKNQVKLTCLVKGFYPSDIAVEWESNGQPENNYKTTPPVLDSDGSFFLYSKLTVDKSRWQQGNVFSCSVMHEALHNHYTQKSLSLSPGK
light: B1 light with S92Y
notes: 2+1 Fab2-scFv-Fc; copies: 1 + 1 + 2
[1]
  EC50 (read off the curve): ~0.06 µg/mL
[2]
  Kd: 3900 pM

B3: XENP31717 (bispecific antibody)
heavy 1: B1 heavy
heavy 2: QVQLVQSGAEVKKPGASVKVSCKASGYTFTSYWMHWVRQAPGQGLEWMGMIHPNSDNTIYYEKFQGRVTMTVDKSISTAYMELSRLRSDDTAVYYCAIIITPVVPKFDYWGQGTLVTVSSASTKGPSVFPLAPSSKSTSGGTAALGCLVKDYFPEPVTVSWNSGALTSGVHTFPAVLQSSGLYSLSSVVTVPSSSLGTQTYICNVNHKPSNTKVDKKVEPKSCGGGGSGGGGSQAVVTQEPSLTVSPGGTVTLTCGSSTGAVTTSNYANWVQQKPGKSPRGLIGGTNKRAPGVPARFSGSLLGGKAALTISGAQPEDEADYYCALWYSNHWVFGGGTKLTVLGKPGSGKPGSGKPGSGKPGSEVQLVESGGGLVQPGGSLRLSCAASGFTFSTYAMNWVRQAPGKGLEWVGRIRSKANNYATYYADSVKGRFTISRDDSKNTLYLQMNSLRAEDTAVYYCVRHGNFGDSYVSWFAYWGQGTLVTVSSGGGGSGGGGSKTHTCPPCPAPPVAGPSVFLFPPKPKDTLMISRTPEVTCVVVDVKHEDPEVKFNWYVDGVEVHNAKTKPREEQYNSTYRVVSVLTVLHQDWLNGKEYKCKVSNKALPAPIEKTISKAKGQPREPQVYTLPPSREQMTKNQVKLTCLVKGFYPSDIAVEWESNGQPENNYKTTPPVLDSDGSFFLYSKLTVDKSRWQQGNVFSCSVMHEALHNHYTQKSLSLSPGK
light: B1 light
notes: 2+1 Fab2-scFv-Fc anti-MSLN x anti-CD3
[1]
  EC50 (read off the curve): ~0.04 µg/mL
[2]
  Kd: 280 pM

B4: XENP32745 (bispecific antibody)
heavy 1: B1 heavy
heavy 2: B3 heavy 2
light: B1 light with D28S
notes: 2+1 Fab2-scFv-Fc
[1]
  EC50 (read off the curve): ~0.05 µg/mL
[2]
  Kd: 450 pM

B5: XENP32937 (bispecific antibody)
heavy: B1 heavy with E62Q
scFv-Fc: not shown
light: B1 light with S92Y
notes: 1+1 Fab-scFv-Fc
[2]
  Kd: 10200 pM
[3]
  Response: 0.183
  koff: 0.00822 s⁻¹
  kon: 803000 M⁻¹ s⁻¹

B6: XENP32563 (bispecific antibody)
heavy: B1 heavy
scFv-Fc: not shown
light: B1 light with S32Y
notes: 1+1 Fab-scFv-Fc
[4]
  Response: 0.898
  koff: 0.00672 s⁻¹
  kon: 527000 M⁻¹ s⁻¹
[5]
  Kd: 13100 pM
  Response: 0.817
  koff: 0.00713 s⁻¹
  kon: 543000 M⁻¹ s⁻¹
[2]
  Kd: ~12800 pM

B7: XENP32947 (bispecific antibody)
heavy 1: B1 heavy with M50W
heavy 2: B3 heavy 2 with M50W
light: B1 light
notes: as for B2
[2]
  Kd: 9200 pM

B8: XENP32948 (bispecific antibody)
heavy: B1 heavy with E62Q
Fab-scFv-Fc: B3 heavy 2 with E62Q
light: B1 light with S92Y
notes: 2+1 Fab2-scFv-Fc
[2]
  Kd: 10200 pM

B9: XENP32748 (bispecific antibody)
heavy 1: B1 heavy
heavy 2: B3 heavy 2
light: B1 light with G30L
notes: 2+1 Fab2-scFv-Fc
[1]
  EC50 (read off the curve): ~0.04 µg/mL
[2]
  Kd: 740 pM

B10: XENP32562 (bispecific antibody)
heavy: B1 heavy
scFv-Fc: not shown
light: B1 light with G30L
notes: 1+1 Fab-scFv-Fc
[4]
  Kd: 628 pM
  Response: 1.01
  koff: 0.000409 s⁻¹
  kon: 651000 M⁻¹ s⁻¹
[1]
  EC50 (read off the curve): ~0.2 µg/mL
[5]
  Kd: 887 pM
  Response: 0.9
  koff: 0.000594 s⁻¹
  kon: 669000 M⁻¹ s⁻¹
[2]
  Kd: 740 pM

B11: XENP32751 (bispecific antibody)
heavy: B1 heavy
Fab-scFv-Fc: B3 heavy 2
light: B1 light with S32Y
notes: as for B2
[1]
  EC50 (read off the curve): ~0.05 µg/mL
[2]
  Kd: ~12800 pM

B12: XENP32561 (bispecific antibody)
heavy: B1 heavy
scFv-Fc: not shown
light: B1 light with D28S
notes: 1+1 Fab-scFv-Fc
[4]
  Kd: 355 pM
  Response: 1.08
  koff: 0.000215 s⁻¹
  kon: 606000 M⁻¹ s⁻¹
[1]
  EC50 (read off the curve): ~0.2 µg/mL
[5]
  Kd: 413 pM
  Response: 0.976
  koff: 0.000248 s⁻¹
  kon: 600000 M⁻¹ s⁻¹
[2]
  Kd: 450 pM

B13: XENP32852 (bispecific antibody)
heavy 1: B1 heavy
heavy 2: B3 heavy 2
light: B1 light with S92Y
notes: as for B2
[1]
  EC50 (read off the curve): ~0.06 µg/mL
[2]
  Kd: 3900 pM
